Assay results: IntAct's records for PubMed 12730685

Target: mgn_human MAGOH (UniProt P61326)

- effect of a mutation on the interaction: decreasing interaction
Substance: RNA-binding protein 8A (Homo sapiens) (from UniProt Q9Y5S9) L118R
